The source of these data is article PMC7053772, “Characterization and assembly of the Pseudomonas aeruginosa aspartate transcarbamoylase-pseudo dihydroorotase complex” (PLoS ONE, 2020).

The labels stand for the following.
B1: Pseudomonas aeruginosa pseudo dihydroorotase (natural protein, Pseudomonas aeruginosa (strain PAO1), UniProt Q51551 1-423, looked up)
chain: MTISIRGARVIDPASDLDQVGDLHIEAGKIVAIGAAPAGFSAQKTLDGAGLVAAPGLVDLSVALREPGYGRKGNVESETRAAAAGGTTSLCCPPYTRPVLDTPAVAELILDRAREAGNAKVYPIGALTRGFGGEQLSELVALRDTGCVAFTNGLHGFASNRILRRALEYAATFDLTVIFTSQDTDLAEGGLAHEGPTASFLGLAGIPETAETVALARNLLLVEQSGVRAHFSQLTSARGIELVAQAQARGLPVTCDVALYQLILTDEALVGFSSLYHVQPPLRTRADREALREAVKNGVVQAIASHHQPHEADAKNAPFAATEPGISGAELLLPLAMTLVQDGLLDLPTLLARLSHGPAQALRLPAGRLAVGQAADLVLFDPQGSTLAGESWYSKGQNSPFVGHCLPGRVRYTLVDGHLTHEG
notes: Dimer by size exclusion chromatography; also called pDHO; pseudo-DHO; source: also co-transformed and co-purified with mutant ATCases
B2: Pseudomonas aeruginosa aspartate transcarbamoylase catalytic chain (enzyme, Pseudomonas aeruginosa (strain PAO1), UniProt Q59653 1-334, looked up)
chain: MPTDAKRPLQLNDQGQLRHFISLDGLPRELLTEILDTADSFLEVGARAVKKVPLLRGKTVCNVFFENSTRTRTTFELAAQRLSADVISLNVSTSSTSKGETLTDTLRNLEAMAADMFVVRHSDSGAAHFIAEHVSPNVAVINGGDGRHAHPTQGMLDMLTIRRHKGNFEQLSVAIVGDILHSRVARSNMLALKTLGCPDIRVIAPRTLLPIGLEEQYGVRVFTNADEGLKDVDVVIMLRLQRERMQGGLLPSEGEFFKLYGLTEKRLKLAKPDAIVMHPGPINRGVEIESAVADGAQSVILNQVTYGIAIRMAVLSMAMSGQNTQRQLEQEDAE
notes: Aspartate transcarbamoylase (ATCase) catalytic chain of Pseudomonas aeruginosa strain PAO1, gene pyrB; about 36-37 kDa; The pyrB gene was amplified by PCR and put into pETite; Removal of the His tag is not mentioned; also called ATCase; ATCase subunit

For data set [1], the target named is T1, P. aeruginosa ATCase-pDHO complex (Pseudomonas aeruginosa, UniProt Q59653).
T1 construct: gene pyrB; both full-length subunits with N-terminal 6xHis tag (pETite), E. coli BL21(DE3), Ni-purified, mixed 1:1; 37 kDa + 45 kDa, 457 kDa dodecamer; with Dihydroorotase-like protein
T1 sequence (Q59653 1-334): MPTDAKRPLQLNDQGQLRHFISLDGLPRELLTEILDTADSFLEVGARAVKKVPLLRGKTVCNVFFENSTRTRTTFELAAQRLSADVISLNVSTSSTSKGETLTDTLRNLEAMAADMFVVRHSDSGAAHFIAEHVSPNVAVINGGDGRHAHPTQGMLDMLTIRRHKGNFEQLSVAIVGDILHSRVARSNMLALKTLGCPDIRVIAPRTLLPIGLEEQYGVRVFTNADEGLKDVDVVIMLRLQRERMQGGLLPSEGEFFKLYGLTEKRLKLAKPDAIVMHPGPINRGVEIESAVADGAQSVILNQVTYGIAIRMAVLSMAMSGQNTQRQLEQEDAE
T1 sequence (Q51551 1-423 partner): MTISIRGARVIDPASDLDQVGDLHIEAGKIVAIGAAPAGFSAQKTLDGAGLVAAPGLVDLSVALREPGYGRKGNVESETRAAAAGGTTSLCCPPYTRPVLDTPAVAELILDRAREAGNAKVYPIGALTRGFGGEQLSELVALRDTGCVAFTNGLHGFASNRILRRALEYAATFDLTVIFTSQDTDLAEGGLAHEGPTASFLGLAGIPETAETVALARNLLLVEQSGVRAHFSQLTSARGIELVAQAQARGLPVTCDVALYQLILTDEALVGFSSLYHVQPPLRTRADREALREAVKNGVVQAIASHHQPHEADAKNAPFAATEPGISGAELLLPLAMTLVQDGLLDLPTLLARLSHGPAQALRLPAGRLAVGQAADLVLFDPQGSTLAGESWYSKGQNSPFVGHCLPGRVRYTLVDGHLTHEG
The data set is described as follows: colorimetric ATCase assay, carbamoyl phosphate saturation curves. It counts as biochemical. As to conditions: 8 mM aspartate, 37°C; PALA 0-500 nM; bisubstrate inhibitor.

Data set [2] concerns the molecule itself. The data set can be described thus: SEC; each Ni2+ column purified protein applied alone; Superdex S-200, 50 mM Tris-HCl pH 7.5, 200 mM NaCl; 2-mL sample of 5-10 mg/ml; calibrated column.
The target in data set [3] is B2. The data set is described as follows: cell-based or functional assay.
Substrate in data set [4]: NC(=O)OP(=O)(O)O
The data set can be described thus: purified protein. It counts as biochemical, Pseudomonas aeruginosa. As to conditions: 8 mM aspartate, 50 mM Tris/acetate pH 8.3, 37°C, Hill fit, text b47 prints 2.5 mM, Table 3 (0 ATP series) 0.88 ± 0.03 mM.

Substrate in data set [5]: N[C@@H](CC(=O)O)C(=O)O
The data set can be described thus: purified protein. It counts as biochemical, Pseudomonas aeruginosa. The conditions noted are these: 10 mM carbamoyl phosphate, 50 mM Tris/acetate pH 8.3, 37°C, Hill fit.

The target of data set [6] is B1. The data set can be described thus: SEC; complex reconstituted by mixing equimolar amounts of ATCase and pDHO; Superdex S-200, 50 mM Tris-HCl pH 7.5, 200 mM NaCl; fractions on SDS-PAGE. The conditions noted are these: both partners purified.

Regarding `O=C(O)C[C@H](NC(=O)CP(=O)(O)O)C(=O)O` [N-phosphonacetyl-L-aspartate], the “colorimetric ATCase assay, carbamoyl phosphate saturation curves” value in data set [1] is “N-phosphonacetyl-L-aspartate is also a potent inhibitor of the of the P. aeruginosa enzyme”.
A word on the stoichiometry N: it is a count of units in the complex or per binding partner. As for B1, the “stoichiometry N” value in data set [2] was 2. For the same molecule, the “ATCase activity of a fixed amount of ATCase (4 ug) titrated with pDHO (0-24.3 ug); molar ratio of ATCase to pDHO at which the activity levels off” value in data set [3] was found to be 0.97 mol pDHO per mol ATCase.
The term Vmax denotes the rate approached at saturating substrate. In general, kcat refers to the number of substrate molecules converted per active site and unit of time at saturation. By kcat/Km is commonly meant the second-order rate constant that governs catalysis at low substrate concentration. For the molecule B2, in “purified protein [4]”, the K0.5 is listed as 2.8 ± 0.18 mM, the Vmax amounted to 142 µmol/min/mg, the kcat is 87.6 s⁻¹ and the kcat/Km came to 31000 M⁻¹ s⁻¹. In addition, in the data set “purified protein [5]”, the K0.5 is 3.6 ± 0.41 mM, the Vmax stood at 183 µmol/min/mg, the kcat was found to be 113 s⁻¹ and the kcat/Km worked out at 31000 M⁻¹ s⁻¹. The binding result in data set [6] is given as “binds”.
